Data published in the Human Domainome abundance scans (Beltran et al. 2025).
± gives the uncertainty stated by the source.

B1: Retinoic acid receptor beta, residues 85 to 161; numbered along this chain, P10826 (parent)
chain: YKPCFVCQDKSSGYHYGVSACEGCKGFFRRSIQKNMIYTCHRDKNCVINKVTRNRCQYCRLQKCFEVGMSKESVRND

Variants of: B1
Assay: abundance fitness (aPCA) (normalised: wild type 0, dead -1); higher = more abundant; growth selection in yeast, the domain comes from the species named
Conditions: Homo sapiens

Variant	abundance fitness
N35T	0.039 ± 0.063
N35S	0.035 ± 0.051
N35H	-0.373 ± 0.14
N35A	0.037 ± 0.045
N35W	-0.45 ± 0.072
N35I	-0.684 ± 0.32
N35R	-0.018 ± 0.037
N35D	0.128 ± 0.062
N35V	-0.184 ± 0.057
N35P	-0.312 ± 0.092
N35C	0.024 ± 0.08
N35Q	0.087 ± 0.065
N35M	-0.149 ± 0.081
N35K	0.186 ± 0.061
F28V	-0.688 ± 0.08
F28C	-0.895 ± 0.2
F28K	-0.9 ± 0.19
F28Q	-0.807 ± 0.19
F28M	-0.47 ± 0.11
F28N	-0.847 ± 0.33
F28T	-0.604 ± 0.11

Variant	abundance fitness
F28E	-0.983 ± 0.17
F28W	-0.123 ± 0.05
F28I	-0.453 ± 0.22
F28L	-0.588 ± 0.079
F28H	-0.338 ± 0.17
F28Y	-0.439 ± 0.12
F28G	-0.82 ± 0.078
F28A	-0.534 ± 0.078
F28P	-1.06 ± 0.42
M36K	0.01 ± 0.07
M36Q	0.089 ± 0.059
M36C	0.15 ± 0.065
M36V	0.072 ± 0.039
M36P	-0.216 ± 0.098
M36L	0.053 ± 0.046
M36T	0.051 ± 0.065
M36I	-0.239 ± 0.1
M36H	-0.025 ± 0.13
M36E	0.124 ± 0.046
M36A	0.132 ± 0.045
M36W	-0.127 ± 0.052

Variant	abundance fitness
M36G	-0.141 ± 0.035
M36N	0.009 ± 0.11
M36F	-0.4 ± 0.12
M36R	-0.064 ± 0.036
M36S	-0.002 ± 0.053
C24S	-0.793 ± 0.12
C24Y	-0.309 ± 0.14
C24T	-0.736 ± 0.22
C24W	-0.955 ± 0.16
I32D	-0.312 ± 0.14
I32L	-0.08 ± 0.049
I32M	-0.105 ± 0.061
I32A	-0.156 ± 0.052
I32N	-0.059 ± 0.11
I32C	-0.176 ± 0.075
I32P	-1.09 ± 0.37
I32W	-0.432 ± 0.083
I32F	-0.633 ± 0.22
I32R	-0.648 ± 0.073
I32K	-0.45 ± 0.12
I32S	-0.487 ± 0.098

Variant	abundance fitness
I32V	0.055 ± 0.04
I32Q	-0.261 ± 0.1
I32Y	-0.056 ± 0.099
I32G	-0.521 ± 0.06
K34G	0.078 ± 0.03
K34L	0.074 ± 0.04
K34F	0.014 ± 0.092
K34C	-0.05 ± 0.054
K34E	0.169 ± 0.044
K34M	0.104 ± 0.051
K34H	-0.146 ± 0.11
K34P	-0.084 ± 0.077
K34Y	-0.007 ± 0.086
K34R	-0.122 ± 0.035
K34V	-0.145 ± 0.039
K34T	-0.06 ± 0.056
K34A	0.003 ± 0.042
K34D	0.33 ± 0.062
K34N	0.089 ± 0.1
K34W	0.05 ± 0.041
K34I	-0.371 ± 0.12
